# According to patent publication US20120021993A1 (AJOU UNIVERSITY INDUSTRY ACADEMIC COOPERATION FOUNDATION, published 2012):
# T1: DcR2 (UniProt Q9UBN6 56-211, limits assumed)
# T1 sequence (looked up): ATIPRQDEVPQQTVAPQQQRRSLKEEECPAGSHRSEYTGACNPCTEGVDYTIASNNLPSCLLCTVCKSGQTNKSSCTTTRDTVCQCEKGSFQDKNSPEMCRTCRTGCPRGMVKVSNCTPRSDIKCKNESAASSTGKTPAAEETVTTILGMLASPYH
# T2: DcR1 (UniProt O14798 26-221, limits assumed)
# T2 sequence (looked up): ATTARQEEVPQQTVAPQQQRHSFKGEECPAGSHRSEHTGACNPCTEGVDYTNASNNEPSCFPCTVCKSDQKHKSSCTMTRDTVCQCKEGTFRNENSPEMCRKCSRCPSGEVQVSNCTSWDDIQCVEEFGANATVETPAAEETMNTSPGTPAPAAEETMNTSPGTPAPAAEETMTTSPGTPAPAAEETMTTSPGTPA
# B1: KD413-KD506 hetero-dimer (designed binder, not shown: small tags and cut ends)
# chain: CAKAEGTGYDGHEHKTHKGIRCQNWYKSKPHYHGHQFRDGDKIKNKKNYCRNPDPRAGPWCFTHGNRNRYELCNQPRCGGGGSGGGGSGGGGSGGGGSCPEDRGHEYDGDGDKTNRGHGCQYWDQNKPHHHGHRDKDKFKHRIKKNYCRNPDYETGPWCFTNRYRNKNELCHEPRC
# B2: KD548-Fc (Fc fusion)
# chain: CHQTQGPKYDGNKDKTHKGHKCQSWTKNRPHHHGNKIENEDENRFQKNYCRNPDNKHEPWCFTHGHRDKHELCHEPRC
# notes: Disulfide-linked dimer from Pichia pastoris; also called Fc-fused anti-DR5 Kringle domain KD548; not shown: Fc domain region from a hinge of human immunoglobulin G1
# B3: anti-DR4 KD413 homo-dimer (designed binder)
# chain: CAKAEGTGYDGHEHKTHKGIRCQNWYKSKPHYHGHQFRDGDKIKNKKNYCRNPDPRAGPWCFTHGNRNRYELCNQPRCGGGGSGGGGSGGGGSGGGGSCAKAEGTGYDGHEHKTHKGIRCQNWYKSKPHYHGHQFRDGDKIKNKKNYCRNPDPRAGPWCFTHGNRNRYELCNQPRC
# B4: KD415 (designed binder)
# chain: CTRSKGDEYDGHKHKTNRGLRCQHWPGTKPHFHGDKIKDRHGFRLKKNYCRNPDPQDQPWCFTNRHQHKNELCNQPRC
# notes: Soluble monomer from Pichia pastoris; also called anti-DR4 Kringle domain variant KD415; not shown: C-terminal myc tag-6xHis tag of pPICZaA
# B5: KD415-Fc (Fc fusion)
# chain: B4 chain
# notes: Disulfide-linked dimer from Pichia pastoris; also called Fc-fused anti-DR4 Kringle domain KD415; not shown: Fc domain region from a hinge of human immunoglobulin G1
# B6: anti-DR5 KD506 homo-dimer (designed binder)
# chain: CPEDRGHEYDGDGDKTNRGHGCQYWDQNKPHHHGHRDKDKFKHRIKKNYCRNPDYETGPWCFTNRYRNKNELCHEPRCGGGGSGGGGSGGGGSGGGGSCPEDRGHEYDGDGDKTNRGHGCQYWDQNKPHHHGHRDKDKFKHRIKKNYCRNPDYETGPWCFTNRYRNKNELCHEPRC
# B7: anti-DR4 KD415 homo-dimer (designed binder)
# chain: CTRSKGDEYDGHKHKTNRGLRCQHWPGTKPHFHGDKIKDRHGFRLKKNYCRNPDPQDQPWCFTNRHQHKNELCNQPRCGGGGSGGGGSGGGGSGGGGSCTRSKGDEYDGHKHKTNRGLRCQHWPGTKPHFHGDKIKDRHGFRLKKNYCRNPDPQDQPWCFTNRHQHKNELCNQPRC
# B8: KD413-Fc (Fc fusion)
# chain: CAKAEGTGYDGHEHKTHKGIRCQNWYKSKPHYHGHQFRDGDKIKNKKNYCRNPDPRAGPWCFTHGNRNRYELCNQPRC
# notes: Disulfide-linked dimer from Pichia pastoris; also called Fc-fused anti-DR4 Kringle domain KD413; not shown: Fc domain region from a hinge of human immunoglobulin G1
# B9: KD506-Fc (Fc fusion)
# chain: CPEDRGHEYDGDGDKTNRGHGCQYWDQNKPHHHGHRDKDKFKHRIKKNYCRNPDYETGPWCFTNRYRNKNELCHEPRC
# notes: Disulfide-linked dimer from Pichia pastoris; also called Fc-fused anti-DR5 Kringle domain KD506; not shown: Fc domain region from a hinge of human immunoglobulin G1
# B10: anti-DR5 KD548 homo-dimer (designed binder)
# chain: CHQTQGPKYDGNKDKTHKGHKCQSWTKNRPHHHGNKIENEDENRFQKNYCRNPDNKHEPWCFTHGHRDKHELCHEPRCGGGGSGGGGSGGGGSGGGGSCHQTQGPKYDGNKDKTHKGHKCQSWTKNRPHHHGNKIENEDENRFQKNYCRNPDNKHEPWCFTHGHRDKHELCHEPRC
# Tests used:
# [1] = target: T3, human-derived cell death receptor 4, extracellular domain (amino acid residues 1-216), 6xHis tag (human, UniProt O00220 24-239); assay: ELISA, coated DR4, A405
# T3 construct: extracellular domain; Expressed in E. coli; biotinylated for sorting and flow cytometry; residues 1-216; also called DR4; TRAIL-receptor 1
# [2] = target: T3, human-derived cell death receptor 4, …; assay: sandwich ELISA: DR4 coated, binder titrated, soluble DR5 detected, A405
# [3] = target: T4, human-derived cell death receptor 5, extracellular domain (amino acid residues 1-130), 6xHis tag (human, UniProt O14763 56-210); assay: ELISA, coated DR5, A405
# T4 construct: extracellular domain; Expressed in E. coli; biotinylated for sorting and flow cytometry; also called DR5; TRAIL-receptor 2
# [4] = target: cell surface DR5 (human, UniProt O14763 56-440); assay: cell-based or functional assay
# [5] = target: T4, human-derived cell death receptor 5, …; assay: affinity ELISA, target coated on the plate
# Description: (§1) In order to measure the affinity and cross reactivity of the anti-DR4, -DR5 and -TNFα protein scaffold variants based on the Kringle domain structure to the target molecules, an enzyme-linked immunosorbent assay (ELISA) was performed. The target molecules DR4, DR5, TNFα and DcR1, DcR2 were attached to a 96 well EIA/RIA plate (COSTARCorning In., USA) by its reaction at 37° C. for 1 hour, and washed three times with 0.1% PBST (0.1% Tween20, pH 7.4, 137 mM NaCl, 10 mM Phosphate, 2.7 mM KCl, SIGMA-ALDRICH Co., USA) for 10 minutes. The target molecules were attached for 1 hour to a 96 well EIA/RIA plate in 1% PBSB (1% BSA, pH 7.4, 137 mM NaCl, 10 mM Phosphate, 2.7 mM KCl, SIGMA-ALDRICH Co., USA), and then washed three times with 0.1% PBST (0.1% Tween 20, pH 7.4, 137 mM NaCl, 10 mM Phosphate, 2.7 mM KCl, SIGMA-ALDRICH Co., USA) for 10 minutes. Then, the anti-DR4, -DR5 and -TNFα Kringle domain variants were bound, and washed three times with 0.1% PBST for 10 minutes. The anti-DR4, -DR5 and -TNFα Kringle domain variants were primarily bound to mouse-derived anti-c-myc 9e10 mAb (Ig Therapy, Korea), and secondarily bound to alkaline phosphatase (AP)-conjugated anti-mouse mAb (Sigma). Each of the Kringle domain variants was reacted with […] (pNPP, Sigma-aldrich Co., USA) and quantified at an absorbance of 405 nm.
# (§2) In order to analyze the affinities of the Fc-fused anti-DR4, -DR5 and -TNFα Kringle domains to target molecules, the affinities of the Fc-fused anti-DR4, -DR5 and -TNFα Kringle domains to the target molecules were analyzed using ELISA, as described in Example 8.
# [6] = target: T3, human-derived cell death receptor 4, …; assay: ELISA, homo-dimer against monomer
# [7] = target: T3, human-derived cell death receptor 4, …; assay: ELISA, target coated on the plate
# [8] = target: T3, human-derived cell death receptor 4, …; assay: ELISA, coated target, A405
# [9] = target: T1, DcR2; assay: ELISA, coated target, single binder concentration not given, A405
# Description: as §1
# [10] = target: T2, DcR1; assay: as above
# Description: as §1
# [11] = target: T3, human-derived cell death receptor 4, …; assay: ELISA, coated target, A405; remark: listed apart in the source
# Description: as §1
# [12] = target: cell surface DR4 (human, UniProt O00220 24-468); assay: cell-based or functional assay
# [13] = target: T3, human-derived cell death receptor 4, …; assay: ELISA on coated DR4, KD415 alone, A405
# [14] = target: T3, human-derived cell death receptor 4, …; assay: ELISA, coated target, A405 [lower panel]
# Description: as §1
# [15] = target: T3, human-derived cell death receptor 4, …; assay: competitive ELISA on coated DR4, biotinylated KD415 with TRAIL (amount not given), A405
# [16] = target: T3, human-derived cell death receptor 4, …; assay: affinity ELISA, target coated on the plate
# Description: as §1, §2
# [17] = target: T4, human-derived cell death receptor 5, …; assay: ELISA, homo-dimer against monomer
# [18] = target: T4, human-derived cell death receptor 5, …; assay: ELISA, target coated on the plate
binder,measurement,setting,value
B1,EC50 (read off the curve),[1],~300 nM
same,EC50 (read off the curve),[2],~200 nM
same,EC50 (read off the curve),[3],~200 nM
B2,"EC50 (a concentration of protein causing a 50% cell death), HL60, MTT assay",[4],220 nM
same,affinity,[5],58 nM
B3,fold increase of affinity against the monomer,[6],~10 fold
same,affinity value,[7],43 nM
B4,EC50 (read off the curve),[8],~300 nM
same,binding result,[9],no binding
same,binding result,[10],no binding
same,EC50 (read off the curve),[11],~300 nM
same,"EC50 (a concentration of protein causing a 50% cell death), HL60, MTT assay",[12],130 nM
same,"EC50 (a concentration of protein causing a 50% cell death), Jurkat, MTT assay",[12],200 nM
same,EC50 (read off the curve),[13],~200 nM
same,EC50 (read off the curve),[14],~300 nM
same,EC50 (read off the curve),[15],~200 nM
B5,"EC50 (a concentration of protein causing a 50% cell death), HL60, MTT assay",[12],60 nM
same,"EC50 (a concentration of protein causing a 50% cell death), Jurkat, MTT assay",[12],80 nM
same,affinity,[16],53 nM
B6,fold increase of affinity against the monomer,[17],~10 fold
same,affinity value,[18],31 nM
B7,fold increase of affinity against the monomer,[6],~10 fold
same,affinity value,[7],87 nM
B8,"EC50 (a concentration of protein causing a 50% cell death), Jurkat, MTT assay",[12],60 nM
same,affinity,[16],60 nM
B9,"EC50 (a concentration of protein causing a 50% cell death), HL60, MTT assay",[4],230 nM
same,"EC50 (a concentration of protein causing a 50% cell death), Jurkat, MTT assay",[4],80 nM
same,affinity,[5],43 nM
B10,fold increase of affinity against the monomer,[17],~10 fold
same,affinity value,[18],53 nM
